This note sets out measurements from publication PMC4234684 (Cellular and molecular life sciences : CMLS, 2014).

The nature of this series: Michaelis–Menten kinetic analysis with colorimetric substrate nitrocefin. The class given is biochemical. As to conditions: PBS, 30 °C, mean ± SEM.

B1: Enterobacter chloacae P99 beta-lactamase (protein, UniProt P05364 21-381, looked up)
Beta-lactamase: TPVSEKQLAEVVANTITPLMKAQSVPGMAVAVIYQGKPHYYTFGKADIAANKPVTPQTLFELGSISKTFTGVLGGDAIARGEISLDDAVTRYWPQLTGKQWQGIRMLDLATYTAGGLPLQVPDEVTDNASLLRFYQNWQPQWKPGTTRLYANASIGLFGALAVKPSGMPYEQAMTTRVLKPLKLDHTWINVPKAEEAHYAWGYRDGKAVRVSPGMLDAQAYGVKTNVQDMANWVMANMAPENVADASLKQGIALAQSRYWRIGSMYQGLGWEMLNWPVEANTVVEGSDSKVALAPLPVAEVNPPAPPVKASWVHKTGSTGGFGSYVAFIPEKQIGIVMLANTSYPNPARVEAAYHILEALQ
modifications: C-terminal His6 tag
Consider B1, for which the kcat/Km came to 7.5e+06 ± 600000 M⁻¹ s⁻¹.

In general, kcat/Km refers to the second-order rate constant that governs catalysis at low substrate concentration.
